Data: publication PMC12650658, “Evaluating the Topological Features of Monomeric and Trimeric TRAF2-C: A Multi-Disciplinary Approach” (Biomolecules, 2025)

Molecular target: the molecule itself
Experiment: dynamic light scattering; TRAF2-C ≈ 4 µM (in monomers), 20 °C, filtered 0.22 µm; bimodal Gaussian fit of the size distribution (monomers, trimers)

B1: C-terminal domain of human TRAF2 (TRAF2-C, residues 310-501) (domain or fragment, UniProt Q12933 310-501, looked up)
chain: DQDKIEALSSKVQQLERSIGLKDLAMADLEQKVLEMEASTYDGVFIWKISDFARKRQEAVAGRIPAIFSPAFYTSRYGYKMCLRIYLNGDGTGRGTHLSLFFVVMKGPNDALLRWPFNQKVTLMLLDQNNREHVIDAFRPDVTSSSFQRPVNDMNIASGCPLFCPVSKMEAKNSYVRDDAIFIKAIVDLTGL
notes: TNF receptor-associated factor 2 (TRAF2), human, C-terminal domain, residues 310-501; Unlabelled protein used for DLS, CD and SANS; Only a pET-based vector is named; the tag is inferred from the Ni-NTA step; also called TRAF2 C-terminal domain; source: E. coli BL21 (DE3), purified (Ni-NTA, Superdex 75 SEC)
B1 was tested, and the “stoichiometry N” value was 3.
